This passage reports mobility fraction (FRAP) results from PMC9597087.

The assay addresses microtubules (human (endogenous in U2-OS)) (UniProt Q71U36). The assay is described as follows: FRAP (fluorescence recovery after photobleaching); living U2-OS cells 48h after transfection, interphase, no STLC; 1.5 um^2 areas bleached, spinning disk confocal; traces analysed with easyFRAP, normalised to pre-bleaching intensity.

As for “GFP-tagged Eg5(T107N) (from UniProt P52732 1-1056) (natural protein)”, the mobility fraction (FRAP) stood at 0.06.
